“And” between values parts separate entries of the source, which are not always exact repeats. Equal entries are not always repeated.
Experiments:
Experiment in all cases: SPR; biotinylated ADO or ADO mutant immobilised on a Biotin CAP chip (~2500-3000 RU), substrate peptide injected; Biacore T200, 4 °C; 20 mM HEPES pH 7.5, 500 mM NaCl, 10 mM DTT, 0.1% tween-20; 50 µL/minute; multi-cycle or single-cycle mode not given; each cell is one of three independent measurements
Details in all cases: both partners purified
[1] = biological target: T1, ADO-Y222A, N-terminally His-tagged and biotinylated (human, UniProt Q96SZ5 1-270, Y222A, biotin (biotinylated during expression))
T1 construct: 2-aminoethanethiol dioxygenase (ADO), human, UniProt Q96SZ5, full length, site-directed mutant; source: E. coli Rosetta2(DE3), purified (Ni-NTA, SEC); not shown: biotinylation tag (from the vector pQE80L-Navi), N-terminal, kept
T1 sequence (looked up): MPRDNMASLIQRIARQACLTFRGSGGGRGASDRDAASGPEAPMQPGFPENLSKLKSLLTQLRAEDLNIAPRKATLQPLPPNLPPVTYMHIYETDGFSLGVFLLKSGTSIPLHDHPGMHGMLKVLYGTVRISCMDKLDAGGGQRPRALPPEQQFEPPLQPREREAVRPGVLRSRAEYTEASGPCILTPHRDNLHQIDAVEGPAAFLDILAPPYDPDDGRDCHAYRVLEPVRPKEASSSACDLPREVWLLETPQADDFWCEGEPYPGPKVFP

[2] = biological target: T2, ADO-Y212F, N-terminally His-tagged and biotinylated (human, UniProt Q96SZ5 1-270, Y212F, biotin (biotinylated during expression))
T2 construct: 2-aminoethanethiol dioxygenase (ADO), human, UniProt Q96SZ5, full length, site-directed mutant; source: E. coli Rosetta2(DE3), purified (Ni-NTA, SEC); not shown: biotinylation tag (from the vector pQE80L-Navi), N-terminal, kept
T2 sequence (looked up): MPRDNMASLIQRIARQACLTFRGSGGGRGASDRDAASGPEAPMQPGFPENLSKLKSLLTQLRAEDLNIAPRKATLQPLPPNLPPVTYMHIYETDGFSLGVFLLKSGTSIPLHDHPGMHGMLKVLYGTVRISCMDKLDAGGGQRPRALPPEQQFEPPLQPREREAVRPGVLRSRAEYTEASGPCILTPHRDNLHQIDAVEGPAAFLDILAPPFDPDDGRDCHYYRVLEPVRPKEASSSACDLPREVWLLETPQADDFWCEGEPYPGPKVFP

[3] = biological target: T3, ADO-D206E, N-terminally His-tagged and biotinylated (human, UniProt Q96SZ5 1-270, D206E, biotin (biotinylated during expression))
T3 construct: 2-aminoethanethiol dioxygenase (ADO), human, UniProt Q96SZ5, full length, site-directed mutant; source: E. coli Rosetta2(DE3), purified (Ni-NTA, SEC); not shown: biotinylation tag (from the vector pQE80L-Navi), N-terminal, kept
T3 sequence (looked up): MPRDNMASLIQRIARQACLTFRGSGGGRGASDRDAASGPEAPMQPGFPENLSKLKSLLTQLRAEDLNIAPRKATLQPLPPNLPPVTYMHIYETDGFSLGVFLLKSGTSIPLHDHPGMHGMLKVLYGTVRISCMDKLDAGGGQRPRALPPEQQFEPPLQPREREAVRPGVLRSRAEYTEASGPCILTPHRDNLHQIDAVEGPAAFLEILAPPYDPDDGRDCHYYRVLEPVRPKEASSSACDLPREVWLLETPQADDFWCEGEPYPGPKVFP

[4] = biological target: T4, ADO-F256A, N-terminally His-tagged and biotinylated (human, UniProt Q96SZ5 1-270, F256A, biotin (biotinylated during expression))
T4 construct: 2-aminoethanethiol dioxygenase (ADO), human, UniProt Q96SZ5, full length, site-directed mutant; source: E. coli Rosetta2(DE3), purified (Ni-NTA, SEC); not shown: biotinylation tag (from the vector pQE80L-Navi), N-terminal, kept
T4 sequence (looked up): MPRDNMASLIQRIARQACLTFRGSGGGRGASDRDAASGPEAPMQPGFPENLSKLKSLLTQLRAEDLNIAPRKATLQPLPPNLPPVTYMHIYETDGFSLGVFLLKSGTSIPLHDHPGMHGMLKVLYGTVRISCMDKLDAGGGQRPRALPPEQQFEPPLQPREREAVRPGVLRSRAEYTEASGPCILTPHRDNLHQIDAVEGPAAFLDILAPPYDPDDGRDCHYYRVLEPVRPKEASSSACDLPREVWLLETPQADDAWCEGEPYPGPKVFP

[5] = biological target: T5, ADO-F101A, N-terminally His-tagged and biotinylated (human, UniProt Q96SZ5 1-270, F101A, biotin (biotinylated during expression))
T5 construct: 2-aminoethanethiol dioxygenase (ADO), human, UniProt Q96SZ5, full length, site-directed mutant; source: E. coli Rosetta2(DE3), purified (Ni-NTA, SEC); not shown: biotinylation tag (from the vector pQE80L-Navi), N-terminal, kept
T5 sequence (looked up): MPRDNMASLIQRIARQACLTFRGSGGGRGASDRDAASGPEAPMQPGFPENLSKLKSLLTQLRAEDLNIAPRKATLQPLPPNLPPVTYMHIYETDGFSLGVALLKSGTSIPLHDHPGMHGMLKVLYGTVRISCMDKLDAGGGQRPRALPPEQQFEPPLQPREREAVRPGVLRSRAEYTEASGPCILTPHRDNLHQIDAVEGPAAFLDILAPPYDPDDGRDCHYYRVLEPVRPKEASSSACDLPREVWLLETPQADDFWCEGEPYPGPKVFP

B1: RGS5(2-15), synthetic peptide corresponding to the methionine excised N-terminus of RGS5, residues 2 to 15 (peptide, UniProt O15539 2-15, looked up)
peptide: CKGLAALPHSCLER
notes: regulator of G-protein signalling 5 (RGS5), residues 2 to 15 (N-terminal Cys exposed); UniProt O15539 is printed for the full-length human protein; also called 14-mer RGS5; source: synthetic peptide
[1]
  Kd: 4.42 µM and 4.8 µM and 4.78 µM
[2]
  Kd: 19.9 µM and 24.5 µM and 29.2 µM
[3]
  Kd: 1.19 µM and 0.997 µM and 1.06 µM
[4]
  Kd: 0.717 µM and 0.753 µM and 0.714 µM

B2: IL32(2-15), synthetic peptide corresponding to the methionine excised N-terminus of IL32, residues 2-15 (peptide, UniProt P24001 2-15, looked up)
peptide: CFPKVLSDDMKKLK
notes: interleukin 32 (IL32), residues 2-15 (N-terminal Cys exposed); also called 14-mer IL32; source: synthetic peptide
[5]
  Kd: 37.9 µM and 35 µM and 37.6 µM
